Measurements as given in US20100266530A1.

Target: N-terminal GFP-tagged tail-less hFcRn (ssECTM: signal sequence-GFP-ectodomain-transmembrane domain) stably expressed on HEK293 cells (human) [GFP: P42212]
Experiment: flow cytometry on ssECTM cells at pH 7.5, 50 ug/ml hIgG-AF647, no competitor

With human IgG (hIgG) (antibody) the MFI was 6 MFI.
